Assay: soluble on expression in E. coli; label from the status in PepcDB or PDB records
In the case of “MAQQAPDREKALELAMAQIDKNFGKGSVMRLGEEVRQPISVIPTGSISLDVALGIGGLPRGRVIEIYGPESSGKTTVALHAVANAQAAGGIAAFIDAEHALDPEYAKKLGVDTDSLLVSQPDTGEQALEIADMLVRSGALDIIVIDSVAALVPRAEIEGEMGDSHVGLQARLMSQALRKMTGALNNSGTTAIFINALREKIGVMFGSPETTTGGKALKFYASVRLDVRRIETLKDGTDAVGNRTRVKVVKNKVSPPFKQAEFDILYGQGISREGSLIDMGVEHGFIRKSGSWFTYEGEQLGQGKENARKFLLENTDVANEIEKKIKEKLGIGAVVTAEADDVLPAPVDF”, the “soluble on expression in E. coli” value is reported as “soluble”.
In the case of “MTSDGATSTSAAAAAAAAAAARRKPSWRERENNRRRERRRRAVAAKIYTGLRAQGDYNLPKHCDNNEVLKALCVEAGWVVEEDGTTYRKPLPGEIAGTSSRVTPYSSQNQSPLSSAFQSPIPSYQVSPSSSSFPSPSRGEPNNNMSSTFFPFLRNGGIPSSLPSLRISNSCPVTPPVSSPTSKNPKPLPNWESIAKQSMAIAKQSMASFNYPFYAVSAPASPTHRHQFHTPATIPECDESDSSTVDSGHWISFQKFAQQQPFSASMVPTSPTFNLVKPAPQQMSPNTAAFQEIGQSSEFKFENSQVKPWEGERIHDVGMEDLELTLGNGKARG”, the “soluble on expression in E. coli” value is reported as “soluble”.
In the case of “GPLGSPEFISLTSIPSLREQQHPLIRQLADCIEEVWHQHLDLSPYHLPAELGYVEGRLEGEKLTIENRCYQTPQFRKMHLELAKVGNMLDILHCVMFPRPEYDLPMFGCDLVGGRGQISAAIADLSPVHLDRTLPESYNSALTSLNTLNFSQPRELPEWGNIFSDFCIFVRPSSPEEEAMFLGRVREFLQVHCQGAIAASPVSAEQKQQILAGQHNYCSKQQQNDKTRRVLEKAFGVDWAENYMTTVLFDLPE”, the “soluble on expression in E. coli” value is reported as “soluble”.
With “MSLDDRSIRAEERSDKLMNLKIKNITCSIKKVPLKRPFITALHKVTEIEGLKIVVELSDGQTGTGTATPNEKVTGDTLQSSLDIVNQVIKPALINQDFKNWNKLLTTLQTCIVHNTAAKAAMDIALYQLKAKENNESLVNLLGSEKGKLTTDYTISIGSDDHMVSEAKSLVKDGFTAIKIKLGNNSVSHDIKTIQKISKAVGPDISLRIDCNQAWNYKDTLKASRIWAQDNLNIDFIEQPVLKDAISDLTLLSENSPYPIMADESVASYQDAINLIKHHACDYINIKLMKTGGLSEAIKINDLAQACGIKTMVGCMIEPVESIAAAAAFAVANKNVKFIDLDSIFMATQDPDLGKYLKIKNNEIILKDEGHHHHHH” the “soluble on expression in E. coli” value was “soluble”.
In the case of “MKPEKIDCNFKLIYCEDEESKGGRLEFSLEEVLAISRNVYKRVRTNRKHHHHHH”, the “soluble on expression in E. coli” value is reported as “soluble”.
For “QDWLTFQKKHITNTRDVDCDNIMSTNLFHCKDKNTFIYSRPEPVKAICKGIIASKNVLTTSEFYLSDCNVTSRPCKYKLKKSTNKFCVNCANQAPVHFVGVGSC”, the “soluble on expression in E. coli” value was “soluble”.
For “MATSLDRDKEAVLRALRPYLEGTGTRLFLFGSFARGEGRQASDLDLALLSPVPLKDLMPLLREALEEAPVVRRVDLVDLAEAEPAFRERVLREGVLWAEF”, the “soluble on expression in E. coli” value was “soluble”.
With “MSLNADTPLQLLGGLTAAEFLRDYWQRKPLLVRQAIPDFESPLSADELAGLSLEESVESRIVLEHGKTPWEMRRGPFQEEDYQHLPEQDWTLLVQAVDQFVPEVAQLLEQFRFLPSWRIDDVMISYAAPGGGVGPHFDNYDVFLLQGHGRRRWKVGQMCSSDSPLREHADLRILADFEQSDEWVLEPGDMLYLPPRLAHYGIAEDECMTYSIGFRAPSAAEVLTHFTDSLGQFLSDEERYTDAGLQPVGDDPHQIQRDALERLQGLIQEHMSDERLLLTWFGQFMTEPRYPELVAGEDIPEEELFGALEDGALLVRNPSARLAWSEIDIGLVLFASGQSVLLPGQLKELLKLVCSADALHLENLGQWLADDDARKLLAELVKQGSLEFADEEGGSHHHHHH” the “soluble on expression in E. coli” value was “soluble”.
In the case of “MEVKEMFSLGGGLGRSKVDESKVWDVIIIGAGPAGYTAAIYAARFGLDTIIITKDLGGNMAITDLIENYPGFPEGISGSELSKKMYDQVKKYGVEVIIDEVIRIDPAECAYYEGPCNFVVKTANGKEYKAKTIIIAVGAEPRKLNVPGEKEFTGRGVSYCATCDGPLFVGKEVIVVGGGNTALQEALYLHSIGVKVTLVHRRDKFRADKILQDRFKQAGIPAILNTVVTEIKGTNKVESVVLKNVKTGETVEKKVDGVFIFIGYEPKTDFVKHLGITDEYGYIPVDMYMRTKVPGIFAAGDITNVFKQIAVAVGQGAIAANSAKEFIESWNGKTIE”, the “soluble on expression in E. coli” value is reported as “soluble”.
With “MGSDKIHHHHHHMQDSMLSGLFGALTTEHRLNNIANNLANVNTNGYKRDVLAFKDTMALFAHDEIMEPMANVRSKKLFPEPLHVARPRIAVARTDFSQGSFHYTSDPLDLAISGNGFFKVRTPEGEFYTRNGHFRQTSDGQLVTMQGWPVLSEGGDINLPQGKNLQVASDGRIAVDGVDVGQLQVVTVSDLEGLEKLGGNLYRLREGSTAGEVPVGPDVIVSQGYIETSNVEVVNEMVNMIETQRQFEAYQKVMQTSDTVDRDAITKIGRGR” the “soluble on expression in E. coli” value was “not soluble”.
With “MNQPLAGYAPAPAGARMENHGNHMLKVAMQTGNDLLARVGSMTAYEGFVQYEPNPPAVRQIAKDWMTGEGAPLMKCSGDGLLYLADYGANVVVINLNGDGISVNATNLLAFDAHLTWGVERVKGLAKFAGQGLWNTKISGQGWVALTSRGKPIVVDCGGGEDETYVDPDALVAWSPNLKVKGKRSFKAQSLIGRGSGEAFQMAFSGQGIVVVQPSEDSTDRLRVRGLEHHHHHH” the “soluble on expression in E. coli” value was “not soluble”.
With “AHHHHHHGSGEKRKTRQAEVNIGMVGHVDHGKTTLTKALTGVWTDTHSEELRRGITIKIGFADAEIRRCSNCGRYSTSPICPYCGHETEFIRRVSFIDSPGHEALMTTMLAGASLMDGAILVIAANEPCPRPQTREHLMALQIIGQKNIIIAQNKIELVDKEKALENYRQIKEFIKGTVAENAPIIPISALHGANIDVLVKAIEEFIPTPKRDSNKPPKMLVLRSFDVNKPGTPPEKLVGGVLGGSIVQGKLKVGDEIEIRPGVPYEEHGRIKYEPITTEIVSLQAGGQFVEEAYPGGLVGIGTKLDPYLTKGDLMAGNVVGKPGKLPPVWTDLRLEVHLLERVVGTEQELNVEPIKRKEVLLLNVGTARTMGLVTALGKDEIELKLQIPVCAEPGERVAISRQIGSRWRLIGYGIIKE” the “soluble on expression in E. coli” value was “not soluble”.
With “MGFQLRGTGTQELSIKELDLSARDAYGTTIKMLKQQLESSGVRVHAGAPYKLVLLSEENSQRTLSYTGGGNSAEYEIGTTLRYEILTHDNLHLLDDKLEVQKVFLHDGNNITGSDQESSETRKEMRRDLIQRMLIRLQLLTPEQLAQLQATAEAKAKAEADALEAARKAEAETPQQSPMELPNQLEHHHHHH” the “soluble on expression in E. coli” value was “not soluble”.
In the case of “MKHFSVKRLLGLSSVLLVTLGASMHAQSYLPKHESVTLKNGLQVVSVPLENKTGVIEVDVLYKVGSRNETMGKSGIAHMLEHLNFKSTKNLKAGEFDKIVKRFGGVSNASTSFDITRYFIKTSQANLDKSLELFAETMGSLNLKEDEFLPERQVVAEERRWRTDNSPIGMLYFRFFNTAYVYHPYHWTPIGFMDDIQNWTLKDIKKFHSLYYQPKNAIVLVVGDVNSQKVFELSKKHFESLKNLDEKAIPTPYMKEPKQDGARTAVVHKDGVHLEWVALGYKVPAFKHKDQVALDALSRLLGEGKSSWLQSELVDKKRLASQAFSHNMQLQDESVFLFIAGGNPNVKAEALQKEIVALLEKLKKGEITQAELDKLKINQKADFISNLESSSDVAGLFADYLVQNDIQGLTDYQRQFLDLKVSDLVRVANEYFKDTQSTTVFLKP”, the “soluble on expression in E. coli” value is reported as “not soluble”.
For “MKHLIVVPPRMNLYIKKNLAINDIFREFVANEDLWPYSIDESILDLTHTWRLFGKTPRAVAQLIQHTIRHRLGLYTTVGIGDNPLQAKIALDVYAKHDPNLIGQISYLEHHHHHH”, the “soluble on expression in E. coli” value was “not soluble”.
In the case of “GSFTEGWVRFSPGPNAAAYLTLENPGDLPLRLVGARTPVAERVELHETFMREVEGKKVMGMRPVPFLEVPPKGRVELKPGGYHFMLLGLKRPLKAGEEVELDLLFAGGKVLKVVLPVEAR”, the “soluble on expression in E. coli” value is reported as “soluble”.
